Here are results for four molecules from patent US20140134180A1 (E R SQUIBB AND SONS L L C, published 2014).

For assay [1], the target named is T1, human O8E, full length, on cells (human, UniProt Q7Z7D3 25-282).
T1 construct: also called B7H4; B7S1
T1 sequence: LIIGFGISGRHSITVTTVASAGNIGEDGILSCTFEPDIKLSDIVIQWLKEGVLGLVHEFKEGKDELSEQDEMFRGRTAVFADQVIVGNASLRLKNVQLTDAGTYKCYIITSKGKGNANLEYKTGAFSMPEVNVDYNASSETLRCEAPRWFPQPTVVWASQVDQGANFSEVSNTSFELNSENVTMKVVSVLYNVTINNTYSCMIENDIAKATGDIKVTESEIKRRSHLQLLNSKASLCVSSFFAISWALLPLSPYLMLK
Put plainly: titration of labelled antibody on O8E-transfected cells, sigmoidal dose response fit; FITC-labelled antibody; qualitative ranking.
Protocol: (§1) HEK cells were transfected with full length O8E using standard techniques and grown in RPMI media containing 10% fetal bovine serum (FBS). […] Millipore plates (MAFB NOB) were coated with 1% nonfat dry milk in water and stored a 4° C. overnight. The plates were washed three times with 0.2 ml of binding buffer. Fifty microliters of buffer alone was added to the maximum binding wells (total binding). Twenty-five microliters of buffer alone was added to the control wells (non-specific binding). Varying concentration of ¹²⁵I-anti-O8E antibody was added to all wells in a volume of 25 μl. (In some cases FITC labeled antibodies were used for the titration since unlabeled material was not available, binding may be compromised in these instances.) Varying concentrations of unlabeled antibody at 100 fold excess was added in a volume of 25 μl to control wells and 25 μl of O8E transfected CHO cells (2×10⁶ cells/ml) in binding buffer were added to all wells. The plates were incubated for 2 hours at 200 RPM on a shaker at 4° C. At the completion of the incubation the Millipore plates were washed three times with 0.2 ml of cold wash buffer (24 mM Tris pH 7.2, 500 mM NaCl, 2.7 mM KCl, 2 mM Glucose, 1 mM CaCl₂, 1 mM MgCl₂, 0.1% BSA.). The filters were removed and counted in a gamma counter. […]

In another assay the target is T2, Penta-B7H4 ( for this construct).
T2 construct: also called Penta-O8E; Penta-B7H4-C9
Put plainly: ELISA: anti-mouse Fc coat, monoclonal anti-C9 (0.6 ug/ml), Penta-B7H4 titrated 4000 to 2.0 ng/ml, human antibody at 1 ug/ml; the value is a concentration of Penta-B7H4, not of antibody [panel B]. For orientation: ELISA stands for enzyme-linked immunosorbent assay.

Assay [2] addresses T1, human O8E, full length, on cells. Put plainly: titration of labelled antibody on O8E-transfected cells, sigmoidal dose response fit; bottom and top fixed for incomplete curve; qualitative ranking.
Protocol: as §1
For assay [3] the target is unchanged. Put plainly: titration of labelled antibody on O8E-transfected cells, sigmoidal dose response fit; qualitative ranking.
Protocol: as §1

Protocol for Penta-B7H4: An ELISA plate was coated with anti-mouse Fc, followed by monoclonal anti-C9 (0.6 ug/ml), then titrated Penta-B7H4 as indicated, then the human antibodies at 1 ug/ml.

B1: 1G11 human monoclonal antibody (antibody, V domains shown)
VH: QVQLQQWGAGLLKPSETLSLTCAVYGGSFSDYFWTWIRQPPGKGLEWIGEINHSGTTNYNPSLKSRVTISADTSKNQFSLRLSSVTAADTAVYYCARLSSWSNWAFEYWGQGTLVTVSS
VL: EIVLTQFPGTLSLSPGERATLSCRASQSVSSTYLAWYQQKPGQAPRVLIYGASRRATGIPDRFSGSGSGTDFTLTISRLEPEDFAVYYCQQYGSSPLTFGGGTKVEIK
notes: Human IgG from a hybridoma of mice carrying a human kappa transgene; also called 1G11.H11-FITC; 1G11.H1
Consider B1, for which the response in assay [1] was half-maximal at 1.69 nM (EC50).

B2: 12E1 human monoclonal antibody (antibody, V domains shown)
VH: EVQLVESGGGLVQPGRSLRLSCVASGFTFDDYAMHWVRQAPGKGLEWVSGISWNSGSIGYADSVKGRFTISRDNAKNSLYLQMNSLRAEDTALYYCTKALYGSGSSDFYYYGMDVWGQGTTVAVSS
VL: EIVLTQSPATLSLSPGERATLSCRASQSVSSYLAWYQQKPGQAPRLLIYDASNRATGIPARFSGSGSGTDFTLTISSLEPEDFAVYYCQQRRTFGQGTKVEIK
notes: Human IgG from a hybridoma of mice carrying a human kappa transgene; also called 12E1.G9
For B2, in the assay with Penta-B7H4, the EC50 (read off the curve) (usually the concentration needed to bring the measured effect to its halfway point) is ~0.05 µg/mL. In addition, in assay [2], the EC50 (usually the concentration at which the effect is half-maximal) is ~19.8 nM.

B3: 2A7 human monoclonal antibody (antibody, V domains shown)
VH: EVQLVESGGGLIQPGGSLRLSCAASGFTVSSNYMNWVRQAPGKGLEWVSVIYGSGRTYYADSVKGRVTISRDNSKNTLYLQMNSLRAEDTAVYYCARDTYAMDVWGQGTTVTVSS
VL: not shown
notes: Human IgG from a hybridoma of mice carrying a human kappa transgene; Fitcylated for immunohistochemistry; also called 2A7.C11; 2A7/C11
Take B3: in the assay with Penta-B7H4, the “EC50 (read off the curve)” value is ~0.04 µg/mL.

B4: 13D12 human monoclonal antibody (antibody, V domains shown)
VH: QVQLQQWGAGLLKPSETLSLTCAVYGGSFSGYYWSWIRQPPGKGLEWIGKINHSGSTNYNPSLKSRVTISVDTSKNQFSLKLNSVTAADTAVYYCARELRYFENYYYGMDVWGQGTTVTVSS
VL: not shown
notes: Human IgG from a hybridoma of mice carrying a human kappa transgene; also called 13D12.G10
Molecule B4 yielded a half-maximal effective concentration (EC50) in assay [3] of 0.746 nM.
